The target in assay [1] is P1-Hpu. As to the kind of experiment: SPR. (In general: In SPR one partner is held on a chip, and binding of the other changes the refractive index at the surface.)
Assay [2] has as its target P1-deoxy. As to the kind of experiment: SPR.
In assay [3] the target is P5-Hpu. Kind of assay: SPR, Biacore T200, peptide captured, Fab flowed.
Assay [4] addresses P2-Hpu. As to the kind of experiment: SPR, Biacore T200, peptide captured, Fab flowed.
In assay [5] the target is P4-Hpu. Kind of assay: SPR, Biacore T200, peptide captured, Fab flowed.
For assay [6], the target named is P1-Hpu. Kind of assay: SPR, Biacore T200, peptide captured, Fab flowed.
Assay [7] concerns the target P1-deoxy. Kind of assay: SPR, Biacore T200, peptide captured, Fab flowed.
Assay [8] deals with P2-deoxy. Kind of assay: SPR, Biacore T200, peptide captured, Fab flowed.
Assay [9] addresses P5-Hpu. Kind of assay: SPR, ratio of KD values.
For assay [10], the target named is P2-Hpu. As to the kind of experiment: SPR, ratio of KD values.
The target in assay [11] is P4-Hpu. As to the kind of experiment: SPR, ratio of KD values.
Assay [12] has as its target P1-Hpu. As to the kind of experiment: SPR, ratio of KD values.
In assay [13] the target is P1-deoxy. Kind of assay: SPR, ratio of KD values.
The target in assay [14] is P2-deoxy. Kind of assay: SPR, ratio of KD values.
Assay [15] addresses P3-Hpu. Kind of assay: SPR, Biacore T200, peptide captured, Fab flowed.
Assay [16] addresses P3-Hpu. As to the kind of experiment: SPR, ratio of KD values.

Positions count from the first letter of the chain named.

B1: FabHpu98.61 (Fab)
heavy: QSVEESGGRLVTPGTPLTLTCTVSACSLYHCTMNWVRQAPGKGLEWIGDIYTDGNTYYANWAKGRFTISKTSTTVDLKITSPTTEDTATYFCARDSWDASSYYGLDLWGQGTLVTVSSGQPKGPSVFPLAPCCGDTPSSTVTLGCLVKGYLPEPVTVTWNSGTLTNGVRTFPSVRQSSGLYSLSSVVSVTSSSQPVTCNVAHPATNTKVDKTVAPSTCSKPT
light: AIKMTQTPSSVSAAVGGTVTINCQASEDIKRYLAWYQQKPGQPPKLLIYAASKLASGVSSRFKGSGSGTEYTLTISGVQCDDAATYYCQQGYTSSNVNNAFGGGTEVVVKGDPVAPTVLIFPPAADQVATGTVTIVCVANKYFPDVTVTWEVDGTTQTTGIENSKTPQNSADCTYNLSSTLTLTSTQYNSHKEYTCKVTQGTTSVVQSFNRGDC
In general, Kd refers to the concentration at which binding is half-saturated. High values mean lower affinity, low ones higher affinity. Take B1: the Kd amounted to 18 nM with P1-Hpu [1]; 20 nM with P1-deoxy [2]; 70 nM in the assay with P5-Hpu [3]; 78 nM in the assay with P2-Hpu [4]; 91 nM with P4-Hpu [5]; 15 nM with P1-Hpu [6]. The figures for the Kd with P1-deoxy [7] and with P2-deoxy [8] were 17 nM and 86 nM, respectively. Also, the Fold improvement in KD over parent FabHpu98 with P5-Hpu [9] turned out to be 2.5 fold; in the assay with P2-Hpu [10] it was 2.6 fold; in the assay with P4-Hpu [11], 2.5 fold; with P1-Hpu [12] it was 7.9 fold; in the assay with P1-deoxy [13], 6.9 fold; with P2-deoxy [14], 1.8 fold.

B2: FabHpu24 (Fab)
heavy: QEQLKESGGRLVAPGTPLTLTCTVSGFDISDYAMIWVRQAPGKGLEWIGIIYGGSNKLAYAKWAKGRFTISRTSTTVDLKITSPTTEDTATYFCARGYGSMDGYDRLNLWGQGTLVTVSSGQPKGPSVFPLAPCCGDTPSSTVTLGCLVKGYLPEPVTVTWNSGTLTNGVRTFPSVRQSSGLYSLSSVVSVTSSSQPVTCNVAHPATNTKVDKTVAPSTCSKPT
light: AAVLTQTPSPVSAAVGGTVTISCQSSETVYRGDWLSWFQKKPGQPPKLLIYDASYLASGVSSRFSGSGSGTHFTLTISGVQCDDAATYYCLGGYYDDADDTFGGGTEVVVKGDPVAPTVLIFPPAADQVATGTVTIVCVANKYFPDVTVTWEVDGTTQTTGIENSKTPQNSADCTYNLSSTLTLTSTQYNSHKEYTCKVTQGTTSVVQSFNRGDC
Regarding B2, the dissociation constant Kd came to 96 nM with P5-Hpu [3], 157 nM with P2-Hpu [4], 541 nM with P4-Hpu [5] and 192 nM with P1-Hpu [6].

B3: FabHpu24.B (Fab)
heavy: B2 heavy with G54V, S55I, K57D
light: B2 light with Q24R, S26R, E27Q, T28R, R31L, Y55F, L56R, A57G, S58D
For B3, the equilibrium dissociation constant (Kd) with P3-Hpu [15] came out at 186 nM; with P5-Hpu [3] it was 7 nM; with P2-Hpu [4], 13 nM; with P4-Hpu [5], 32 nM; in the assay with P1-Hpu [6], 6 nM. Also, the Fold improvement in KD over parent FabHpu24 in the assay with P3-Hpu [16] was more than 5 fold; with P5-Hpu [9], 13 fold; in the assay with P2-Hpu [10] it was 12 fold; in the assay with P4-Hpu [11], 17 fold; with P1-Hpu [12] it was 32 fold.

The values above are taken from US20210072250A1.
